Source: PMC3917506

Biological target: mRFP1-Rac1 (wild type) (human), P63000
Test: FRET or BRET
Conditions: remark: other sources report otherwise

average FRET efficiency E%: 14%
B1: Teal-N-WASP, O00401 1-505 (natural protein)
chain: MSSVQQQPPPPRRVTNVGSLLLTPQENESLFTFLGKKCVTMSSAVVQLYAADRNCMWSKKCSGVACLVKDNPQRSYFLRIFDIKDGKLLWEQELYNNFVYNSPRGYFHTFAGDTCQVALNFANEEEAKKFRKAVTDLLGRRQRKSEKRRDPPNGPNLPMATVDIKNPEITTNRFYGPQVNNISHTKEKKKGKAKKKRLTKADIGTPSNFQHIGHVGWDPNTGFDLNNLDPELKNLFDMCGISEAQLKDRETSKVIYDFIEKTGGVEAVKNELRRQAPPPPPPSRGGPPPPPPPPHNSGPPPPPARGRGAPPPPPSRAPTAAPPPPPPSRPSVAVPPPPPNRMYPPPPPALPSSAPSGPPPPPPSVLGVGPVAPPPPPPPPPPPGPPPPPGLPSDGDHQVPTTAGNKAALLDQIREGAQLKKVEQNSRPVSCSGRDALLDQIRQGIQLKSVADGQESTPPTPAPTSGIVGALMEVMQKRSKAIHSSDEDEDEDDEEDFEDDDEWED
